Results reported in patent US20230416363A1 (KADMON, published 2023).
Numbering of substitutions follows the chain as printed.

Assays:
[1] = molecular target: T1, mPD1 (soluble, ELISA of Examples 20 and 24) (mouse, UniProt Q02242 25-167, limits assumed); assay: ELISA, mPD1
T1 construct: also called Biotin-mPD1
T1 sequence (looked up): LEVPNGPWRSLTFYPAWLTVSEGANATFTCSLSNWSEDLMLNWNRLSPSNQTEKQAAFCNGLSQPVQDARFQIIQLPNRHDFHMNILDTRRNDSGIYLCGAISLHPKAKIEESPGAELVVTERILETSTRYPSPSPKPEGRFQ

mPD-1-Fc [2] = molecular target: T2, mPD-1-Fc (mouse; human, UniProt Q02242 25-167, limits assumed); assay: SPR Biacore, mPD1-Fc
T2 construct: domain: IgV domain; not shown: human IgG1 Fc
T2 sequence (looked up): T1 sequence (looked up)

[3] = molecular target: T3, mouse PD-1 expressed on cells (mouse, UniProt Q02242 25-288); assay: flow cytometry, mPD1-eff cells
T3 construct: whole, on cells
T3 sequence (looked up): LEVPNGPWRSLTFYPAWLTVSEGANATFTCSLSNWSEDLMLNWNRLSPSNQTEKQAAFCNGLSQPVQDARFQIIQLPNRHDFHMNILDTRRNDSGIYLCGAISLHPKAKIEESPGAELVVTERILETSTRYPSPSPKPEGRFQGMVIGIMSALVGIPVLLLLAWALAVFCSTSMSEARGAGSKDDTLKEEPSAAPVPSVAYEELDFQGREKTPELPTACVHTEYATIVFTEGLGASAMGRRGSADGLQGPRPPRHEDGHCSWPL

mPD-1-his [4] = molecular target: T4, mPD-1-his (mouse, UniProt Q02242 25-167, limits assumed); assay: SPR Biacore, mPD1-his
T4 construct: domain: IgV domain
T4 sequence: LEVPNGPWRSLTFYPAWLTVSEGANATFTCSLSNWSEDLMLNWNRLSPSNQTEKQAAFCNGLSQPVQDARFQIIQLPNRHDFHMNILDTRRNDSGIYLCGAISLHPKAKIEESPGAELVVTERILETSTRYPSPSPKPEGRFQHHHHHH

[5] = molecular target: T3, mouse PD-1 expressed on cells; assay: cell-based or functional assay
mPD-1-Fc [6] = molecular target: T2, mPD-1-Fc; assay: ELISA, mPD-1-Fc on streptavidin
[7] = molecular target: T5, hPD1 (soluble, ELISA of Example 20) (human, UniProt Q15116 25-167, limits assumed); assay: ELISA, hPD1; direct binding ELISA on hPD1 (EC50 row)
T5 sequence (Q15116 25-167 limits assumed): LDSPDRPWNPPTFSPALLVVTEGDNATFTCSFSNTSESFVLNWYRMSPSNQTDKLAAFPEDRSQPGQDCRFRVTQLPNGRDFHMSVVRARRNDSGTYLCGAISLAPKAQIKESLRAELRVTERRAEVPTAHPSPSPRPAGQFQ

[8] = molecular target: T1, mPD1 (soluble, ELISA of Examples 20 and …); assay: blocking ELISA, mPD1 to mPDL1
[9] = molecular target: T3, mouse PD-1 expressed on cells; assay: flow cytometry, mPD-1-293 cells
mPD-1-Fc [10] = molecular target: T2, mPD-1-Fc; assay: blocking ELISA, mPD-1 to PD-L1
[11] = molecular target: T1, mPD1 (soluble, ELISA of Examples 20 and …); assay: ELISA, biotin-mPD1 on streptavidin
mPD-1-Fc [12] = molecular target: T2, mPD-1-Fc; assay: ELISA, mPD-1-Fc
[13] = molecular target: T3, mouse PD-1 expressed on cells; assay: flow cytometry, mPD1-293 cells
mPD-1-his [14] = molecular target: T4, mPD-1-his; assay: ELISA, mPD-1-his on streptavidin
[15] = molecular target: T5, hPD1 (soluble, ELISA of Example 20); assay: ELISA, hPD1
[16] = molecular target: T3, mouse PD-1 expressed on cells; assay: cell-based or functional assay; remark: listed apart in the source
[17] = molecular target: T6, human PD-1 expressed on cells (human, UniProt Q15116 25-288); assay: cell-based or functional assay
T6 sequence (Q15116 25-288): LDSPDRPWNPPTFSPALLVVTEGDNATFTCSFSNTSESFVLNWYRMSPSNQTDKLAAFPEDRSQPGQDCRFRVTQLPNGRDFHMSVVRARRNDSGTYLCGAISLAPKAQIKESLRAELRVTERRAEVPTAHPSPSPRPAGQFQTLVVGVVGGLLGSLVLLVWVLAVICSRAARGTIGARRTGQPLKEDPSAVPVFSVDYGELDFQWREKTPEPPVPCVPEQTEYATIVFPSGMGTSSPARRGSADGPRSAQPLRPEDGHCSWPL

[18] = molecular target: T5, hPD1 (soluble, ELISA of Example 20); assay: blocking ELISA, hPD1 to hPDL1
[19] = molecular target: T6, human PD-1 expressed on cells; assay: flow cytometry, hPD1-Jurkat cells
hPD-1-Fc [20] = molecular target: T7, hPD-1-Fc (human, UniProt Q15116 25-167); assay: SPR Biacore, hPD1-Fc
T7 construct: domain: IgV domain; also called human PD-1-Fc; not shown: human IgG1 Fc
T7 sequence (Q15116 25-167 limits assumed): as the sequence (Q15116 25-167 limits assumed) above

[21] = molecular target: T6, human PD-1 expressed on cells; assay: flow cytometry, hPD1-293 cells
[22] = molecular target: T6, human PD-1 expressed on cells; assay: flow cytometry, SEB-activated PBMC donor
hPD-1-his [23] = molecular target: T8, hPD-1-his (human, UniProt Q15116 25-167); assay: ELISA, biotin-PD-1-his on streptavidin
T8 construct: domain: IgV domain; monomer in solution; biotin-labelled where captured by streptavidin; also called biotin-hPD-1-his
T8 sequence (Q15116 other isoform, or with tags, fused parts or gaps limits assumed): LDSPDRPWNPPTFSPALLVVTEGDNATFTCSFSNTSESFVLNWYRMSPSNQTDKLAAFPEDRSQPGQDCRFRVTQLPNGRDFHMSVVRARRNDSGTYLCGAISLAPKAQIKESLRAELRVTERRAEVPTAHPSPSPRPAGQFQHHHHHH

hPD-1-Fc [24] = molecular target: T7, hPD-1-Fc; assay: blocking ELISA, hPD-1 to hPD-L1; set-up: unit not given here
hPD-1-his [25] = molecular target: T8, hPD-1-his; assay: SPR Biacore T200, PD-1-his immobilised
hPD-1-his [26] = molecular target: T8, hPD-1-his; assay: ELISA, PD-1-his on anti-his
[27] = molecular target: T6, human PD-1 expressed on cells; assay: flow cytometry, SEB-activated PBMC donor two
[28] = molecular target: T6, human PD-1 expressed on cells; assay: flow cytometry, hPD-1-293 cells
[29] = molecular target: T6, human PD-1 expressed on cells; assay: cell-based or functional assay; remark: listed apart in the source
[30] = molecular target: T6, human PD-1 expressed on cells; assay: flow cytometry, activated PBMC donor two
hPD-1-his [31] = molecular target: T8, hPD-1-his; assay: SPR, Exp. 4
[32] = molecular target: T6, human PD-1 expressed on cells; assay: flow cytometry, hPD1-Jurkat cells; remark: listed apart in the source
hPD-1-Fc [33] = molecular target: T7, hPD-1-Fc; assay: blocking ELISA, PD-1 to PD-L2
hPD-1-his [34] = molecular target: T8, hPD-1-his; assay: SPR (Biacore), hPD1his immobilised; upper end of the printed KD range over the experiments
hPD-1-Fc [35] = molecular target: T7, hPD-1-Fc; assay: SPR Biacore T200, PD-1-Fc immobilised
hPD-1-Fc [36] = molecular target: T7, hPD-1-Fc; assay: blocking ELISA, PD-1 to PD-L1
[37] = molecular target: T6, human PD-1 expressed on cells; assay: flow cytometry, hPD-1-Jurkat cells
[38] = molecular target: T6, human PD-1 expressed on cells; assay: flow cytometry, activated PBMC donor FA
hPD-1-Fc [39] = molecular target: T7, hPD-1-Fc; assay: ELISA, hPD-1-Fc coated
hPD-1-his [40] = molecular target: T8, hPD-1-his; assay: ELISA, PD-1-his on anti-his; remark: listed apart in the source
hPD-1-his [41] = molecular target: T8, hPD-1-his; assay: ELISA, PD-1-his on streptavidin
hPD-1-Fc [42] = molecular target: T7, hPD-1-Fc; assay: SPR, Exp. 3
hPD-1-his [43] = molecular target: T8, hPD-1-his; assay: SPR, Exp. 3
hPD-1-Fc [44] = molecular target: T7, hPD-1-Fc; assay: SPR, Exp. 1
hPD-1-his [45] = molecular target: T8, hPD-1-his; assay: SPR, Exp. 1
[46] = molecular target: T6, human PD-1 expressed on cells; assay: flow cytometry, hPD1-293 cells; remark: listed apart in the source
hPD-1-Fc [47] = molecular target: T7, hPD-1-Fc; assay: SPR, Exp. 2
hPD-1-his [48] = molecular target: T8, hPD-1-his; assay: SPR, Exp. 2
hPD-1-Fc [49] = molecular target: T7, hPD-1-Fc; assay: SPR, range over experiments
hPD-1-his [50] = molecular target: T8, hPD-1-his; assay: SPR (Biacore), hPD1his immobilised; lower end of the printed KD range over the experiments
hPD-1-Fc [51] = molecular target: T7, hPD-1-Fc; assay: ELISA, PD-1-Fc coated

B1: R3A9 (antibody, V domains shown)
VH: QVQLVQSGAEVKKPGASVKVSCKASGHTFTSYYIHWVRQAPGQGLEWMGIINPSGGSTSYAQKFQGRVTMTRDTSTSTVYMELSSLRSEDTAVYYCARDRAYGGAGDYWGQGTLVTVSS
VL: DIQMTQSPSSLSASVGDRVTITCRASQSVGTWLAWYQQKPGKAPKLLIYSASTLQSGVPSRFSGSGSGTDFTLTISSLQPEDFATYYCQQSYSAPLTFGGGTKVEIK
notes: also called 7115A; mPD1 parental (R3A9)
For B1, the EC50 [1] was 1.36 nM, the Kd (mPD-1-Fc [2]) was 12.1 nM and the koff (mPD-1-Fc [2]) was 0.0014 s⁻¹. It also gave a kon (mPD-1-Fc [2]) of 116000 M⁻¹ s⁻¹, an EC50 [3] of 0.645 nM and a Kd (mPD-1-his [4]) of 15.7 nM. The koff (mPD-1-his [4]) was 0.00641 s⁻¹, the kon (mPD-1-his [4]) was 409000 M⁻¹ s⁻¹ and the “IC 50, Promega assay” value [5] was 1.62 µg/mL. For the same binder, the EC50 (mPD-1-Fc [6]) was 0.156 nM, the EC50 [7] was 3.25 nM and the IC50 [8] was 0.722 nM. For the same binder, the EC50 [9] was 0.566 nM, the IC50 (mPD-1-Fc [10]) was 0.441 nM and the EC50 [11] was 0.462 nM. For the same binder, the EC50 (mPD-1-Fc [12]) was 14.6 nM, the EC50 [13] was 0.314 nM and the EC50 (mPD-1-his [14]) was 1.61 nM.

B2: m4D1 (antibody, V domains shown)
VH: B1 VH
VL: B1 VL with V29I, G30S, T31A, S50K, T53S, Q55E, A94P, L96A
notes: R3A9 derivative
With B2 the EC50 [1] was 2.03 nM, the Kd (mPD-1-Fc [2]) was 2.69 nM and the koff (mPD-1-Fc [2]) was 0.000179 s⁻¹. It also gave a kon (mPD-1-Fc [2]) of 66300 M⁻¹ s⁻¹, an EC50 [3] of 0.441 nM and a Kd (mPD-1-his [4]) of 2.87 nM. The koff (mPD-1-his [4]) was 0.000201 s⁻¹, the kon (mPD-1-his [4]) was 70000 M⁻¹ s⁻¹ and the EC50 [15] was 0.221 nM. For the same binder, the IC50 [8] was 0.882 nM, the “IC50, Promega blockade bioassay” value [16] was 0.572 nM and the “IC50, Promega blockade bioassay” value [17] was 2.12 nM. For the same binder, the IC50 [18] was 6.02 nM, the EC50 [19] was 0.738 nM and the EC50 [11] was 1.15 nM. It also gave a Kd (hPD-1-Fc [20]) of 1.09 nM, a koff (hPD-1-Fc [20]) of 6.36e-05 s⁻¹ and a kon (hPD-1-Fc [20]) of 58300 M⁻¹ s⁻¹. For the same binder, the EC50 [21] was 1.48 nM and the EC50 [13] was 1.14 nM.

B3: 38A6 (antibody, V domains shown)
VH: EVQLLESGGGLVQPGGSLRLSCAASGFTFSSYWMSWVRQAPGKGLEWVSAISGSGGSTYYADSVKGRFTISRDNSKNTLYLQMNSLRAEDTAVYYCASSPLQWVDVWGQGTTVTVSS
VL: DIQMTQSPSSLSASVGDRVTITCRASQDISRWLGWYQQKPGKAPKLLIYAASTLQSGVPSRFSGSGSGTDFTLTISSLQPEDFATYYCQQANSFPFTFGPGTKLEIK
notes: also called 780_46
B3 was tested, and the “MFI, 5 nM” value [22] was 65.2 MFI, the EC50 (hPD-1-his [23]) was 0.084 nM and the “Inhibition at 50 nM” value (hPD-1-Fc [24]) was 91.7. The Kd (hPD-1-his [25]) was 1.18 nM, the EC50 (hPD-1-his [26]) was 0.089 nM and the “MFI, 5 nM” value [27] was 54.7 MFI. For the same binder, the “MFI, 5 nM” value [28] was 227 MFI, the “EC50, Promega blockade bioassay” value [29] was 0.164 µg/mL and the Fold induction [29] was 5.66 fold. The EC50 [30] was 0.17 nM, the “MFI at 25 nM” value [30] was 15.9 MFI and the Kd (hPD-1-his [31]) was less than 0.09 nM. For the same binder, the EC50 [32] was 0.21 nM, the “MFI at 5 nM” value [32] was 89.5 MFI and the IC50 (hPD-1-Fc [33]) was 2.39 nM. For the same binder, the “Inhibition, % at 3.7 nM” value (hPD-1-Fc [33]) was 90.4%, the “Inhibition, % at 100 nM” value (hPD-1-Fc [33]) was 94.8% and the Kd (hPD-1-his [34]) was no more than 2.3 nM. The Kd (hPD-1-Fc [35]) was 0.477 nM, the IC50 (hPD-1-Fc [36]) was roughly 2.14 nM and the “Inhibition % at 50 nM” value (hPD-1-Fc [36]) was 92.2%. The “Inhibition, % at 5.56 nM” value (hPD-1-Fc [36]) was 92%, the “MFI, 5 nM” value [37] was 59.9 MFI and the EC50 [38] was 0.21 nM. For the same binder, the “MFI at 25 nM” value [38] was 14.5 MFI, the “OD at 10 nM” value (hPD-1-Fc [39]) was 0.993 OD and the “OD at 10 nM” value (hPD-1-his [40]) was 0.576 OD. The “OD at 10 nM” value (hPD-1-his [41]) was 0.948 OD, the Kd (hPD-1-Fc [42]) was less than 0.301 nM and the Kd (hPD-1-his [43]) was less than 0.574 nM. For the same binder, the Kd (hPD-1-Fc [44]) was less than 0.188 nM, the Kd (hPD-1-his [45]) was 2.3 nM and the EC50 [46] was 0.15 nM. For the same binder, the “MFI at 5 nM” value [46] was 110 MFI, the Kd (hPD-1-Fc [47]) was less than 0.136 nM and the Kd (hPD-1-his [48]) was less than 0.586 nM. It also gave a Kd (hPD-1-Fc [49]) of 0.14 to 0.3 nM, a Kd (hPD-1-his [50]) of no less than 0.9 nM and an EC50 (hPD-1-Fc [51]) of 0.079 nM.
